This data set concerns MS2 coat protein. Nature of the data set: apparent KD of MS2 coat protein; designed switch direction (-1 OFF switch, 1 ON switch): -1; higher = weaker reporter binding. Put shortly: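 Designed RNA switches sharing common flanks were transcribed on Illumina chips by stalled E. coli RNA polymerase. They were titrated with SNAP-549-labelled MS2 coat protein, from 0.7 or 1.5 nM doubling to 3 µM, in Tris-HCl pH 7.5 buffer with KCl, MgCl2, BSA, DTT, tRNA and Tween-20. Titrations ran without input, with 200 uM small-molecule ligand, or with an oligonucleotide input. The apparent KD of each design is the median over its clusters, after curve-fitting of normalised cluster fluorescence.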

[1] abbreviates: Eterna round: R95, input ligand: microRNA oligo, concentration not stated.
The mark [2] stands for this setting: input ligand: microRNA oligo, concentration not stated.

Turning to “UUAUAUAGUGUGAGGAUAUGCUGGUCCUUGGAUCAGCAGAAGGCACAUGAGGAUCACCCAUGUAAUAUAUUAUU [JL bmx4 3.07] (puzzle: Brourd's mod of Exclusion 4)”, the “apparent KD of MS2 coat protein” value under setting [1] is 58.2 nM. For the sequence “UUAUUAAGUGUGAGGAUAUGCUGGUCCUUGGAUCAGCAGAAGGCACAUGAGGAUCACCCAUGUACUUUAUUUUA [JL bmx4 3.04] (puzzle: Brourd's mod of Exclusion 4)”, the “apparent KD of MS2 coat protein” value under setting [1] stood at 15.5 nM. As for “UUAUUAAUUAAUAUUAUAAGAUCACAUGAGGAUCACCCAUGUCAGGAUAUCAGCUCGUUUAGAGCUGAGAAGGGACAAAUAAUA [ExNG3/15-B2] (Eterna round: R96, puzzle: Exclusion NG 3)”, the “apparent KD of MS2 coat protein” value (input ligand: FMN 200 uM) stood at 118 nM, the “apparent KD of MS2 coat protein” value under setting [2] was found to be 187 nM and the “apparent KD of MS2 coat protein” value (input ligand: none) worked out at 189 nM. “UUAUUAUAUGUAGGAUAUGCAUAUUAUUAUUAUGCAGAAGGACAUGAGGAUCACCCAUGUAUGUUGUUAUUAUAUAUUAUAUAU [Title] (Eterna round: R96, puzzle: Exclusion NG 1)”: the “apparent KD of MS2 coat protein” value under setting [2] came to 20.6 nM. On the same count and under the same terms, under “UUAUUAUAUGUAGGAUAUGCAUAUUGUUAUUAUGCAGAAGGACAUGAGGAUCACCCAUGUAUAUUAUUAUUAUAUAUUAUAUAU [Title] (Eterna round: R96, puzzle: Exclusion NG 1)” stands 23.3 nM. For the sequence “UUCAGUCAUCCUUAUUGUUACAUGAGGAUCACCCAUGUUUGUUUAAUUAAGUUUUGUAAGUUUGUUGUUCGUUUUAU [JR_STOV1_v2_Sub074] (Eterna round: R97, puzzle: Sensor, turn-off variant 1)”, the “apparent KD of MS2 coat protein” value by setting is: (input ligand: FMN 200 uM) 154 nM; (input ligand: none) 173 nM. Turning to “UUCAUGUGAGGAUAUAGUACUCUUUCUAUUAUUAUUGAGUAUUAGAAGGCACAUGAGGAUCACCCAUGUAGUAC [Ex4 - 3 - 41] (puzzle: Exclusion 4)”, under setting [1], the “apparent KD of MS2 coat protein” value is 28.1 nM. As for “UUCCCACAUGAGGAUCACCCAUGUGAGGAUAUGGGCGGCGCCGCAAAAGCGGCGCCGCCCAGAAGGCGCAUGAU [Malcxlusion 8 - Jieux - Exclusion 1] (Eterna round: R97, puzzle: Exclusion 1)”, the “apparent KD of MS2 coat protein” value was 21.6 nM (input ligand: FMN 200 uM) and 18.4 nM (input ligand: none).

Turning to “UUCCUCUCUUCUCCGUCUCACAUGAGGAUCACCCAUGUAACAUAGGAUAUGCUUGGUAUUUAAAUGCAGAAGGAUGUUAGUAUU [JR_ExcNG3_Sub081] (Eterna round: R96, puzzle: Exclusion NG 3)”, the “apparent KD of MS2 coat protein” value stood at 76.6 nM (input ligand: FMN 200 uM), 21.1 nM under setting [2] and 29.5 nM (input ligand: none). Taken in the same sequence, the figures for “UUCCUCUCUUCUUUGUCUCACAUGAGGAUCACCCAUGUAACAUAGGAUAUGCUUGGUAUUUAUAUGCAGAAGGAUGUUAGUAUU [JR_ExcNG3_Sub083] (Eterna round: R96, puzzle: Exclusion NG 3)” were 60.8 nM, 19 nM and 25.7 nM. Consider “UUCUAACGAGGAUAUCGAUGGUGGAACAUGAGGAUCACCCAUGUAUGAGAUAUUGUAGUUCGAGAAGGCGUUCAGU [JR_E5_Sub057] (Eterna round: R96, puzzle: Exclusion 5)”, for which the “apparent KD of MS2 coat protein” value runs as follows: (input ligand: FMN 200 uM) 35.9 nM; under setting [2], 32.3 nM; (input ligand: none) 48.6 nM. For the sequence “UUCUAACGAGGAUAUCGAUGGUGGAACAUGAGGAUCACCCAUGUAUGAGAUAUUGUAGUUCGAGAAGGCGUUCAGU [JR_E5_Sub057] (puzzle: Exclusion 5)”, the “apparent KD of MS2 coat protein” value under setting [1] worked out at 36.6 nM.

Take “UUGAACCCGGUAGGAUAUAUUGUGGGCAAACAUGGAACAACAUGAGGAUCACCCAUGUAAUUUAGGUAGAAGGGCCAAAAGAUU [Excl-NG2-LRO06] (Eterna round: R96, puzzle: Exclusion NG 2)”: the “apparent KD of MS2 coat protein” value reads like this: (input ligand: FMN 200 uM) 72.1 nM; under setting [2], 61 nM; (input ligand: none) 69.9 nM.

The values are drawn from the supplement of paper PMC9170038.
